Experimental data reported in paper doi:10.1101/2020.10.19.344861 (bioRxiv, 2020).

Molecular target: the molecule itself
Experiment: SEC-MALS

B1: CynR (full length) (natural protein, Escherichia coli, UniProt P27111 1-299, looked up)
chain: MLSRHINYFLAVAEHGSFTRAASALHVSQPALSQQIRQLEESLGVPLFDRSGRTIRLTDAGEVWRQYASRALQELGAGKRAIHDVADLTRGSLRIAVTPTFTSYFIGPLMADFYARYPSITLQLQEMSQEKIEDMLCRDELDVGIAFAPVHSPELEAIPLLTESLALVVAQHHPLAVHEQVALSRLHDEKLVLLSAEFATREQIDHYCEKAGLHPQVVIEANSISAVLELIRRTSLSTLLPAAIATQHDGLKAISLAPPLLERTAVLLRRKNSWQTAAAKAFLHMALDKCAVVGGNESR
stoichiometry N: 4

B2: cherry-core (CC) of CynR, effector binding domain (domain or fragment, Escherichia coli, UniProt P27111 59-299, looked up)
chain: DAGEVWRQYASRALQELGAGKRAIHDVADLTRGSLRIAVTPTFTSYFIGPLMADFYARYPSITLQLQEMSQEKIEDMLCRDELDVGIAFAPVHSPELEAIPLLTESLALVVAQHHPLAVHEQVALSRLHDEKLVLLSAEFATREQIDHYCEKAGLHPQVVIEANSISAVLELIRRTSLSTLLPAAIATQHDGLKAISLAPPLLERTAVLLRRKNSWQTAAAKAFLHMALDKCAVVGGNESR
stoichiometry N: 2
